This is an account of results in patent US10111948B2, “Synthetic hapten carrier compositions and methods” (TRIA BIOSCIENCE CORP., priority 2014, dated 2018).

The subject of assay [1] is antisera isolated from TCC^Nic4 immunized mice. The assay is described as follows: competitive ELISA for specificity of nicotine binding by antisera. As for the experimental part: FIG. 6 presents data showing specificity of nicotine binding by antisera isolated from TCC^Nic4 immunized mice determined by competitive ELISA for nicotine, cotinine, and acetylcholine.
Antibody affinity and the nicotine binding capacity of the anti-nicotine antibodies evoked in TCC^Nic4-immunized mice were examined. Mice were immunized with 2.5 μg TCC^Nic4 on days 0, 14, and 146, and antisera were obtained. Nicotine binding to antisera isolated from TCC^Nic4 immunized mice was determined by competitive ELISA for nicotine, cotinine, and acetylcholine.

Assay [2] deals with C57BL/6 mice. The assay is described as follows: nicotine-induced hypoactivity (locomotor activity, open field). It is filed as in vivo. To be noted: 10 daily 10 μg nicotine injections, 7 day rest, 10 μg challenge. The method, then:
C57Bl/6 mice were immunized with TCC^Nic4 and KLH^Nic100 in the absence and presence of GLA-SE adjuvant. Immunized mice were sensitized to nicotine with 10 daily injections (10 μg). Following a 7 day rest period, mice were challenged with nicotine (10 μg), and locomoter activity was monitored using infrared beam-equipped open field chambers. The PBS-immunized group was not challenged with nicotine.
Furthermore, mice immunized with TCC^Nic4 and KLH^Nic100 with and without GLA-SE as described above were evaluated for nicotine-induced hypoactive behavior with nicotine challenges as described in Rosenberg et al. (2013, Hum. Gene Ther. 24:595-603). Immunized mice were sensitized with 10 daily injections of 10 μg of nicotine. After a 7 day rest period, the mice were then challenged with 10 μg of nicotine, and locomotor activity was monitored using infrared beam-equipped open field chambers. The mice immunized with PBS were not challenged with nicotine.

The subject of assay [3] is mice. The assay is described as follows: nicotine distribution in serum/plasma and brain after nicotine injection in immunized mice. The format is in vivo. As for the experimental part:
FIGS. 9A-C show the levels of nicotine in sera and brains of mice (n=5/group) immunized with PBS, TCC^Nic4 with and without alum and GLA-SE adjuvants, or KLH conjugated to nicotine (KLH^Nic22) with and without alum and GLA-SE adjuvants. Immunized mice were injected with a dose of nicotine tartrate equivalent to the nicotine in 3 cigarettes (1.2 μg). Five minutes later the mice were sacrificed, tissues removed, and the amount of nicotine in (A) sera and (B) brain were measured by mass spectrometry. (C) The calculated percent inhibition of nicotine entry into the brain is shown.
FIGS. 10A-B show comparative antibody responses between TCC^Nic4 and KLH^Nic100. C57Bl/6 mice were immunized with each conjugate in the absence and presence of GLA-SE adjuvant. […]
To test antibody function, TCC^Nic4 or KLH^Nic22 (non-adjuvanted; +Alum; or +GLA-SE) immunized mice were injected with free nicotine equivalent to 3 cigarettes. […] Nicotine was extracted from the plasma and brain tissues and then quantified by LC/MS. The amounts of nicotine in plasma (ng/ml) and brain (ng/g) were determined. […] Data were analyzed using GraphPad Prism (San Diego, Calif.). Statistically significant differences between 2 groups were calculated by Student's 2-tailed t-test on log transformed data and between 3 or more groups by 1-factor analysis of variance (ANOVA) followed by post-hoc analysis. […]

Assay [4] is described as follows: serum nicotine binding capacity (inhibition RIA). The following applies: serum of immunized mice. As for the experimental part: Kd values were used to calculate total antibody concentrations according to the law of mass action equation: Kd=[Nic][Ig]/[Nic−Ig].
Plasma was assayed for nicotine binding capacity at various times following immunization. Plasma aliquots were spiked with increasing nicotine levels (0.0001-10 μM) (serum nicotine levels in heavy smokers is 100 ng/ml or 0.617 μM) and then subjected to inhibition RIA (with H^3-Nicotine as the tracer and non-radiolabeled nicotine as the inhibitor) to calculate the total nicotine binding IgG in serum (see, e.g., Moreno et al., 2010, Mol. Pharm. 7:431-41; Muller, 1983, Methods Enzymol. 92:589-601). Immobilized protein A was used to capture IgGs from the serum to separate them from free nicotine. Aliquots of both the protein A eluate and the serum supernatant were subjected to liquid scintillation counting to quantify the amount of tracer in each fraction.

Assay [5] in a line: relative Kd of serum IgG by competitive ELISA. The format is binding, mice. The method, then:
FIGS. 7A-B illustrate antibody avidities of antisera from mice immunized with TCC conjugated to nicotine.
Relative Kd values of serum IgG were determined by competitive ELISA. Dilutions of antiserum were prepared and incubated with soluble nicotine (0.0001-100 μM). After equilibrium was achieved, binding to bovine serum albumin (BSA) conjugated to nicotine was measured. […] Each sample was assayed in triplicate wells along with standard control sera, and the mean midpoint and endpoint titers (+/−SEM) were determined.

Assay [6] deals with C57BL/6 mice. The assay is described as follows: anti-nicotine antibody titers by ELISA in immunized C57BL/6 mice. It is filed as in vivo. The method, then: FIGS. 3A-B illustrate anti-nicotine antibody titers as measured by ELISA. C57Bl/6 mice (n=5/group) were immunized (days 0, 14, and 146) with 2.5 μg of the trimeric coiled-coil peptide vaccine comprising peptide monomers with 16 lysines conjugated to an average of 4 nicotines per monomer. Control groups were administered KLH-Nic22 or PBS. Vaccines were formulated with (A) Alum adjuvant or (B) GLA-SE adjuvant. Sera were collected at the indicated times and assayed for anti-nicotine antibodies by ELISA.
FIG. 5 illustrates titer to nicotine in mice (C57Bl/6 mice (n=5/group)) immunized with the indicated doses of TCC^Nic4 plus GLA-SE adjuvant. Day 35 sera were assayed for anti-nicotine antibodies by ELISA.
FIGS. 10A-B show comparative antibody responses between TCC^Nic4 and KLH^Nic100. C57Bl/6 mice were immunized with each conjugate in the absence and presence of GLA-SE adjuvant. (A) Serum was assayed for anti-nicotine antibody responses by ELISA. (B) Data showing serum sequestration of nicotine. Percent inhibition of nicotine entry into the brain is indicated.
Trimeric coiled coil structures comprising three peptide monomers having an amino acid sequence set forth in SEQ ID NO:13 were conjugated as described above with nicotine to provide constructs comprising an average of 0.6, 4, and 14 nicotine molecules per monomeric peptide. […] Sera were collected periodically for approximately 20 weeks after the primary immunization, and anti-nicotine antibody titers were determined by ELISA.
In the same experiment, groups of mice were immunized with three non-TCC nicotine carriers, FGK4.5^nic19 and IgG2^nic17 and KLH^nic22. […] Sera were collected and measured for anti-nicotine and anti-carrier antibody titers by ELISA using, respectively, nicotine conjugated BSA, non-conjugated trimeric coiled-coil peptide, and non-conjugated KLH, FGK4.5, and IgG2 carriers used in the respective vaccine composition. Each sample was assayed in triplicate wells along with standard control sera, and the mean midpoint and endpoint titers (+/−SEM) were determined. […]

Take `CN1C(=O)CC[C@H]1c1cccnc1` [cotinine]: the “binding by antibodies induced by TCC^Nic4 immunization” value in assay [1] (competitive ELISA) is on record as “did not bind physiological concentrations”. Moreover, the “IC50 relative to nicotine” value in assay [1] (competitor in competitive ELISA) is listed as 1000 fold.

B1: TCC^Nic4: trimeric coiled coil of three SEQ ID NO:13 monomers conjugated with average 4 nicotine 6-hexanoic acid per monomer (conjugate)
chain: KKIEKRIEKIEKRIKKIEKRIKKIEKRIKKIEKRIKKAKFVAAWTLKAAAYQNPTTYISVK
modifications: also: trimer (trimeric coiled coil of three monomers), ~4 nicotine 6-hexanoic acid haptens per monomer (sites not given here)
As to B1, the “hypoactivity behavior after nicotine challenge” value in assay [2] (non-adjuvanted vaccine) is “hypoactivity observed”. For the same molecule, in assay [2] (with GLA-SE adjuvant), the “prevention of nicotine sensitization and hypoactivity behavior” value is “appeared equivalent in preventing nicotine sensitization and subsequent hypoactivity behavior”. Besides, in assay [3] (combined with either adjuvant (Alum or GLA-SE), 5 min after nicotine injection), the “nicotine in sera and brain, immunogen compared with KLH^Nic22” value was “superior immunogen”. Moreover, in assay [3] (plus GLA-SE adjuvant, nicotine dose equivalent to 3 cigarettes, 5 min), the “circulating nicotine prevented from entering the brain” value is reported as “greater than 90%”. Besides, in assay [4], the “nicotine binding capacity compared with control KLH conjugate” value was “significantly larger”. Besides, the “antibody affinity compared to KLH^Nic22” value in assay [5] (in the absence of adjuvant) was “higher affinity antibodies”. In addition, the “antibody affinity relative to antibodies evoked by KLH^Nic22” value in assay [5] (in the presence of GLA-SE adjuvant) is reported as “an order of magnitude greater”. Moreover, in assay [5] (in the presence of GLA-SE adjuvant, read-out: affinity of the antibodies evoked by immunization (Kd)), the Kd (usually the equilibrium constant for the complex coming apart) is around 1 nM. In addition, in assay [6] (2.5 μg on days 0, 14, 146, FIG. 3), the “anti-nicotine antibody titer compared with KLH^Nic22” value is listed as “consistently greater”. Besides, the anti-nicotine antibody titers entry in assay [6] (adjuvanted (Alum or GLA-SE), 2.5 μg on days 0, 14, 146, sera for approx. 20 weeks) is recorded as “robust antibody titers”. Besides, the “dose achieving the maximum anti-nicotine antibody response” value in assay [6] (adjuvanted with GLA-SE, doses 0.1, 0.5, 1, 2.5 μg, day 35 sera) was at most 100 ng. Moreover, the “specificity of antibodies induced by immunization” value in assay [1] (2.5 μg on days 0, 14, 146) is recorded as “nicotine-specific”.
